The record followed here is the supplement of paper PMC10567573.

The chains are these.
B1: KLHL20 (parent)
chain: YQDMIYAVGGRDDTTELSSAERYN
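Note: lentivirally expressed fusions sorted by FACS into six bins by GFP to DsRed ratio, PSI derived from sequencing read proportions per bin multiplied by bin number.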

In this data set the parent is B1. Description: protein stability index of a GFP-peptide fusion (GPS, HEK-293T) (PSI 1-6); higher = more stable. To be noted: c terminus: a fixed tail appended.
Turning to YQDMIYNVGGRDDTTELSSAERYN [A7N], the protein stability index was 2.92.
For the variant YQDMIYYVGGRDDTTELSSAERYN [A7Y], the protein stability index was determined as 2.27.
Then YQDMIYVVGGRDDTTELSSAERYN [A7V], with 2.16.
Then YQDMIYFVGGRDDTTELSSAERYN [A7F], with 1.69; and YQDMIYMVGGRDDTTELSSAERYN [A7M], with 1.96; and YQDMIYDVGGRDDTTELSSAERYN [A7D], with 3.34.
Regarding YQDMIYPVGGRDDTTELSSAERYN [A7P], the protein stability index was determined as 3.07.
On to YQDMIYLVGGRDDTTELSSAERYN [A7L], for which the protein stability index was found to be 2.01.
With YQDMIYCVGGRDDTTELSSAERYN [A7C], the protein stability index is 2.17.
Then YQDMIYQVGGRDDTTELSSAERYN [A7Q], with 2.29; and YQDMIYGVGGRDDTTELSSAERYN [A7G], with 3.01; and YQDMIYTVGGRDDTTELSSAERYN [A7T], with 2.27.
Then YQDMIYHVGGRDDTTELSSAERYN [A7H], with 2.42.
YQDMIYSVGGRDDTTELSSAERYN [A7S]: the protein stability index was determined as 2.55.
Consider YQDMIYEVGGRDDTTELSSAERYN [A7E], for which the protein stability index was 3.56.
YQDMIYKVGGRDDTTELSSAERYN [A7K]: the protein stability index was 2.12.
For YQDMIYIVGGRDDTTELSSAERYN [A7I], the protein stability index turned out to be 1.8.
With YQDMIYRVGGRDDTTELSSAERYN [A7R], the protein stability index came to 1.76.
Then YQDMIYWVGGRDDTTELSSAERYN [A7W], with 2.92.
Regarding YQDMIYAVGERDDTTELSSAERYN [G10E], the protein stability index turned out to be 2.92.
Then YQDMIYAVGTRDDTTELSSAERYN [G10T], with 1.82.
Then YQDMIYAVGARDDTTELSSAERYN [G10A], with 1.83; and YQDMIYAVGKRDDTTELSSAERYN [G10K], with 1.83.
For YQDMIYAVGCRDDTTELSSAERYN [G10C], the protein stability index came to 2.23.
Take YQDMIYAVGSRDDTTELSSAERYN [G10S]: the protein stability index is 2.09.
Then YQDMIYAVGLRDDTTELSSAERYN [G10L], with 1.78.
To YQDMIYAVGQRDDTTELSSAERYN [G10Q] belongs 2.61; to YQDMIYAVGNRDDTTELSSAERYN [G10N], 2.45.
In the case of YQDMIYAVGYRDDTTELSSAERYN [G10Y], the protein stability index worked out at 1.8.
Then YQDMIYAVGFRDDTTELSSAERYN [G10F], with 2.27.
Then YQDMIYAVGMRDDTTELSSAERYN [G10M], with 1.87; and YQDMIYAVGHRDDTTELSSAERYN [G10H], with 2.12.
Then YQDMIYAVGWRDDTTELSSAERYN [G10W], with 1.91; and YQDMIYAVGRRDDTTELSSAERYN [G10R], with 1.86; and YQDMIYAVGDRDDTTELSSAERYN [G10D], with 2.81.
Turning to YQDMIYAVGPRDDTTELSSAERYN [G10P], the protein stability index is 2.44.
Regarding YQDMIYAVGIRDDTTELSSAERYN [G10I], the protein stability index turned out to be 1.62.
Take YQDMIYAVGVRDDTTELSSAERYN [G10V]: the protein stability index amounted to 2.05.
Then YQDMIGAVGGRDDTTELSSAERYN [Y6G], with 3.77.
Then YQDMIMAVGGRDDTTELSSAERYN [Y6M], with 2.98; and YQDMIVAVGGRDDTTELSSAERYN [Y6V], with 3.01.
Then YQDMIEAVGGRDDTTELSSAERYN [Y6E], with 4.55; and YQDMILAVGGRDDTTELSSAERYN [Y6L], with 2.88.
Consider YQDMIDAVGGRDDTTELSSAERYN [Y6D], for which the protein stability index turned out to be 4.74.
To YQDMITAVGGRDDTTELSSAERYN [Y6T] belongs 3.94; to YQDMIFAVGGRDDTTELSSAERYN [Y6F], 2.14.
For YQDMISAVGGRDDTTELSSAERYN [Y6S], the protein stability index was determined as 3.88.
Then YQDMIPAVGGRDDTTELSSAERYN [Y6P], with 3.41; and YQDMIIAVGGRDDTTELSSAERYN [Y6I], with 3.08; and YQDMINAVGGRDDTTELSSAERYN [Y6N], with 3.98.
Consider YQDMICAVGGRDDTTELSSAERYN [Y6C], for which the protein stability index stood at 2.71.
Then YQDMIQAVGGRDDTTELSSAERYN [Y6Q], with 3.87; and YQDMIHAVGGRDDTTELSSAERYN [Y6H], with 3.27; and YQDMIKAVGGRDDTTELSSAERYN [Y6K], with 3.43.
Consider YQDMIWAVGGRDDTTELSSAERYN [Y6W], for which the protein stability index was 2.51.
To YQDMIRAVGGRDDTTELSSAERYN [Y6R] belongs 3.37; to YQDMIYAGGGRDDTTELSSAERYN [V8G], 2.81.
Take YQDMIYAMGGRDDTTELSSAERYN [V8M]: the protein stability index came to 1.75.
Consider YQDMIYAQGGRDDTTELSSAERYN [V8Q], for which the protein stability index was 2.6.
Then YQDMIYAFGGRDDTTELSSAERYN [V8F], with 1.87; and YQDMIYATGGRDDTTELSSAERYN [V8T], with 2.41; and YQDMIYAEGGRDDTTELSSAERYN [V8E], with 3.38.
Consider YQDMIYAIGGRDDTTELSSAERYN [V8I], for which the protein stability index was 1.97.
For YQDMIYALGGRDDTTELSSAERYN [V8L], the protein stability index came out at 1.86.
On to YQDMIYASGGRDDTTELSSAERYN [V8S], for which the protein stability index worked out at 2.65.
Then YQDMIYAKGGRDDTTELSSAERYN [V8K], with 2.44; and YQDMIYARGGRDDTTELSSAERYN [V8R], with 2.52; and YQDMIYACGGRDDTTELSSAERYN [V8C], with 2.37.
Then YQDMIYAPGGRDDTTELSSAERYN [V8P], with 2.79; and YQDMIYAAGGRDDTTELSSAERYN [V8A], with 2.77.
Then YQDMIYADGGRDDTTELSSAERYN [V8D], with 3.45; and YQDMIYAWGGRDDTTELSSAERYN [V8W], with 1.94; and YQDMIYAHGGRDDTTELSSAERYN [V8H], with 2.84.
Consider YQDMIYAYGGRDDTTELSSAERYN [V8Y], for which the protein stability index was determined as 2.09.
For YQDMIYANGGRDDTTELSSAERYN [V8N], the protein stability index turned out to be 2.81.
To YQDMIYAVLGRDDTTELSSAERYN [G9L] belongs 2.01.
YQDMIYAVMGRDDTTELSSAERYN [G9M]: the protein stability index was 2.17.
Then YQDMIYAVTGRDDTTELSSAERYN [G9T], with 2.4.
Then YQDMIYAVKGRDDTTELSSAERYN [G9K], with 2.07.
Then YQDMIYAVAGRDDTTELSSAERYN [G9A], with 1.94; and YQDMIYAVNGRDDTTELSSAERYN [G9N], with 1.95.
With YQDMIYAVEGRDDTTELSSAERYN [G9E], the protein stability index amounted to 2.53.
To YQDMIYAVIGRDDTTELSSAERYN [G9I] belongs 1.51.
As to YQDMIYAVWGRDDTTELSSAERYN [G9W], the protein stability index came to 1.92.
Consider YQDMIYAVYGRDDTTELSSAERYN [G9Y], for which the protein stability index came out at 1.32.
Then YQDMIYAVPGRDDTTELSSAERYN [G9P], with 2.32; and YQDMIYAVCGRDDTTELSSAERYN [G9C], with 2.23.
To YQDMIYAVVGRDDTTELSSAERYN [G9V] belongs 2.02; to YQDMIYAVRGRDDTTELSSAERYN [G9R], 2.36; to YQDMIYAVSGRDDTTELSSAERYN [G9S], 1.85.
Regarding YQDMIYAVHGRDDTTELSSAERYN [G9H], the protein stability index was 1.94.
To YQDMIYAVDGRDDTTELSSAERYN [G9D] belongs 2.88; to YQDMIYAVQGRDDTTELSSAERYN [G9Q], 2.27; to YQDMIYAVFGRDDTTELSSAERYN [G9F], 2.15.
